Positions count from the first letter of the chain named. One block for each molecule: values may come before it.
Experiments:
Sprague Dawley rats = test: Carrageenan paw edema in Sprague Dawley rat (plethysmography); format: in vivo; conditions: antibodies IP 1.5 mg/rat, indomethacin 5 mg/kg
Experimental: (§1) This example describes the effects of PAR-2 antibodies on paw edema in an acute AIA model substantially as described previously. Briefly, 6-8 week old Sprague Dawley or Lewis rats (Charles River Laboratories, Wilmington, Mass.) were injected subcutaneously (SC) in the plantar region of the hind paw with 1% lambda carrageenan in one hind paw and control (saline) in the other. Blocking PAR-2 monoclonal antibody (1A1) or control (positive or negative control; see footnotes to Table 4) was administered intraperitoneally (IP) eighteen hours prior to adjuvant injection at 1.5 mg/rat (approximately 8-10 mg/kg), swelling was then measured by plethysomgraphy at selected time points. Data were expressed as volume of water in milliliters (mL) displaced per paw versus baseline measurements for that paw.

Lewis rats [1] = test: Acute adjuvant-induced arthritis (C/K) model, knee joint thickness; format: in vivo; conditions: Lewis rat, group mean ± SEM
Experimental: This example describes acute and chronic models of arthritis. In both models, animals are anesthetized, for example by Ketamine/Xylazine mixture (mouse mix or rat mix, respectively) or isoflurane for all intraarticular (IA), periarticular (PA) injections or intradermal (ID) injections.
Joint injections, IA or PA, are targeted at either knees or hind limb paws. PA injections are equally divided across four sites surrounding the joint of interest. Paw injections are administered ID into the plantar area of the hind paw. To serve as an internal control, one knee or hind-limb paw is injected with vehicle alone or sterile PBS. Preparation of the injection area includes shaving the joint area after animals are anesthetized, and scrubbing with an iodine solution followed by an alcohol disinfectant. All articular injections are given with a 30-gauge needle or equivalent, and when needed by a gastight (i.e., Hamilton) syringe, for small injection volumes (i.e. 10 microL).
For induction of acute AIA (aAIA), animals are injected on day zero (D0) with 1-4% lambda-carrageenan and 1-4% kaolin (C/K) by IA injection in saline. Concentrations of both compounds are dependent on intended disease severity. Total injection volumes for the inducing agent are between 10-20 microL for mice and 60-80 microL for rat. Both concentration and injection volume are consistent with published methodologies (J Clin Invest. 2003; 111(1):35-41, and J Pharmacol Exp Ther. 2006; 316(3):1017-24). Alternatively, specific PAR-2 peptide agonists, or other activators of inflammation (such as trypsin, or human beta-tryptase [J Clin Invest. 2003; 111(1):35-41, J Pharmacol Exp Ther. 2006; 316(3):1017-24, J Pharmacol Sci. 2005 97(1):38-42, and Br J Pharmacol. 1999 127(5):1083-90]) or the equivalent, may be used. Concentrations used are selected for intended disease severity, and total injection volumes are appropriate to the animal being injected.
For both acute and chronic AIA studies, caliper measurements of joint diameter are taken of all joints of interest prior to any injection. Tracking of disease may include caliper measurements of joint diameter as well as flexible tape measurements of joint circumference, and visual scoring. Alternative methods (i.e., use of a plethysmometer) may also be used. Severity of cAIA is scored by one or both of the criteria shown below:
In this manner, 6-8 week old Lewis rats were injected with C/K plus treatment (or control) in the left knee, and negative control in each right knee, as for the acute model. Joint thickness was measured at set time points after treatment, using an average of three caliper readings. The change in thickness of the left knee as compared to the right knee was expressed as percent change, and is shown in Table 3 below.

rats = test: Paw edema study, further experiments (IP versus SC, dose dependence); format: in vivo, rat
[2] = molecular target: T1, N-terminal PAR-2/Fc (full length and truncated) (Homo sapiens, UniProt P55085); test: Western blot, binding to uncleaved versus clipped N-terminal PAR-2/Fc; conditions: for Binding to Cleavage Site Up stream: upstream binder binds only full-length PAR-2/Fc; for Binding to Cleavage Site Down stream: downstream binder binds both full length and truncated PAR-2-Fc
T1 construct: made in house; host or cells: CHO cells (10% FCS for uncleaved; serum-free for clipped)
From the text: N-terminal PAR-2/Fc polypeptide (SEQ ID NO:6) is expressed in suitable mammalian cells such as CHO cells. Expression supernatant from CHO expression cells cultured in serum-free media contain a CHO cell trypsin-like serine protease that cleaves PAR-2/Fc at the activation Arg-Ser bond, generating the “clipped” version of the PAR-2/Fc polypeptide. CHO expression cells cultured in 10% fetal calf serum (which contains normal levels of plasma proteinase inhibitors at concentrations far in excess of the concentration of the CHO cell trypsin-like serine protease) express uncleaved N-terminal PAR-2/Fc in culture supernatants. Both clipped and uncleaved proteins are purified using methods that are suitable for isolation and purification of proteins comprising an Fc regions (for example, using a MabSelect™ resin systems, from GE Healthcare, Piscataway, N.J.)). The resultant purified Fc-constructs are analyzed by amino terminal sequence analysis (Edman degradation), size exclusion chromatrography, absorbance spectral scan, and mass spectroscopy, as needed.
To analyze binding to uncleaved versus cleaved PAR-2, various amounts of purified uncleaved and clipped N-terminal PAR2-Fc are subjected to SDS-PAGE using 8-16% polyacrylamide gradient gels (Novex gels, Invitrogen Life Technologies) in a Tris-Glycine buffer system. Gel lanes containing See Blue standards (Novex, Invitrogen Life Technologies) for molecular weight identification are also included. Following electrophoresis, proteins are transferred from gels onto nitrocellulose membranes using a Novex XCell II Blot Module (Invitrogen Life Technologies). Membranes are blocked with 1:1, Odyssey blocking buffer, OBB, (LI-COR Biosciences):TBS (Tris Buffer Saline) overnight at 4 C with shaking. Antibodies to be analyzed are diluted in 1:1 OBB:TBS at a desired final concentration for 1 hr at room temperature. Membranes are washed extensively with 0.1% Tween 20 in TBS (3-4 changes of 100 ml over ˜1 hr). Membranes are then exposed to the appropriate secondary antibody-Alexa680 (Molecular Probes, Invitrogen Life Technologies) conjugate (goat anti-rabbit IgG, or goat anti-mouse IgG) diluted 1:5000 in 1:1 (OBB:TBS) for 1 hr at room temperature. Membranes are washed as described above, and if desired, analyzed using a LI-COR Odyssey Infrared Imaging System (LI-COR Biosciences).
(§2) Several PAR-2 antibodies were tested in different assay formats; Table 2 summarizes the results. IC50 values were determined in a FLIPR assay for Ca2+ mobilization described previously; binding to the upstream region of the cleavage site versus the downstream region of the cleavage site was determined using the Western blot assay described previously.

[3] = Pharmacokinetic analysis in the paw edema study; format: in vivo, rat; conditions: SC administered
Lewis rats [4] = test: Carrageenan paw edema in Lewis rat (plethysmography); format: in vivo; conditions: IP 18 h prior to carrageenan, 1.5 mg/rat
Experimental: as §1

PAR-2 = molecular target: T2, PAR-2 (Homo sapiens, UniProt P55085); test: FLIPR assay for Ca2+ mobilization; format: cell-based
T2 sequence (P55085 26-397): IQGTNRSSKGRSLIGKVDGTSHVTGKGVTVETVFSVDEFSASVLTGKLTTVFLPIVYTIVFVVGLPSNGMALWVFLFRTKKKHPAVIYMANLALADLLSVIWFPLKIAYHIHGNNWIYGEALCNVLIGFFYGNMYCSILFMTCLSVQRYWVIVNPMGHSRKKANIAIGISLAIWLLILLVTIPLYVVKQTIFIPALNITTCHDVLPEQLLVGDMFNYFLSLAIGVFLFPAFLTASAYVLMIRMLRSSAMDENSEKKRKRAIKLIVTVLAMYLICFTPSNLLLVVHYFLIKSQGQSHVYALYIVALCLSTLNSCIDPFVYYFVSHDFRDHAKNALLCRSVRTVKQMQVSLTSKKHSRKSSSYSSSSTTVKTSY
From the text: Hybridoma clones thus generated are screened for reactivity with PAR-2. Initial screening of hybridoma supernatants may utilize a peptide ELISA, a whole cell ELISA and/or a cell-based assay suitable for high-throughput screening (fluorometric microvolume assay technology or FMAT, substantially as described by Fiscella, et al., Nature Biotechnology 21:302-307; 2003). Hybridomas that are positive in this screening method may be further cultured to provide larger amounts of antibody, which can then be purified as described below and screened by additional cell-based assay(s) (for example, a flash plate assay using cells co-expressing apoaequorin, a Ca2+-sensitive photoprotein, substantially as described by Le Poul et al., J. Biomol. Screen. 7(1):57-65; 2002, and PAR-2), or a fluorometric imaging plate reader (FLIPR) assay, which is used to determine changes in intracellular Ca2+ levels, substantially as described in S. Pitchford, Genetic Engineering News vol. 18, Number 15 (1998) and/or Sullivan et al., Methods in Molecular Biology vol. […]
as §2

T1 sequence (P55085 with tags, fused parts or gaps limits assumed): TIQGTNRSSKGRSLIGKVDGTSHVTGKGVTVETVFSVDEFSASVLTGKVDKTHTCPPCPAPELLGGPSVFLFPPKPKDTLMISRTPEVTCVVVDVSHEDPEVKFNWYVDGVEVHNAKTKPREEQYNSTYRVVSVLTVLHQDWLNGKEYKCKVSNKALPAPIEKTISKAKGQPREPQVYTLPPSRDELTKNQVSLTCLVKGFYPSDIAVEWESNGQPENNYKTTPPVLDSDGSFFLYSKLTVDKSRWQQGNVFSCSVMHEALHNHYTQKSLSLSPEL

Molecule: COc1ccc2c(c1)c(CC(=O)O)c(C)n2C(=O)c1ccc(Cl)cc1 [Indomethacin, reference compound]
Paw Edema, volume of water displaced per paw versus baseline (Sprague Dawley rats; 0 Hr): 0.00 ± 0.00 mL
Paw Edema, volume of water displaced per paw versus baseline (Sprague Dawley rats; 2 Hr): 0.26 ± 0.22 mL
Paw Edema, volume of water displaced per paw versus baseline (Sprague Dawley rats; 4 Hr): 0.28 ± 0.08 mL
Paw Edema, volume of water displaced per paw versus baseline (Sprague Dawley rats; 6 Hr): 0.49 ± 0.16 mL

Molecule: SLIGRL [reference compound]
change in thickness of the left knee as compared to the right knee, percent change (Lewis rats [1]; 0 Hr): 0.00 ± 0.00%

Binding to Cleavage Site Up stream [2]: xxx
B1: 1A1: anti-PAR-2 monoclonal antibody, blocking; heavy SEQ ID NO: 9, light SEQ ID NO: 11 (antibody, listed as Homo sapiens, V domains shown)
VH: EVQLVQSGAEVKKPGESLKISCKGSGYNFISHWIGWVRQMPGKGLEWMGMIYPGDSDTRYSPSFQGQVTISADKSINTAYLQWRSLKASDTAMYFCARHGGITGTTFYYDFGMDVWGQGTTVTVSS
VL: SYELTQPPSVSVSPGQTARITCSGDALPKQYASWYQQKPGQAPLLVIYRDSERPSGLPERFSGSSSGTTVTLTISGVQAEDEADYYCQSADSGGSYVFGTGTKVTVL
effect on paw swelling (rats; administered IP): significantly decreased paw swelling
inhibition of swelling, dose dependence (rats; administered IP): dose-dependent manner
effect on paw swelling (rats; administered SC): not when administered SC
Paw Edema, volume of water displaced per paw versus baseline (Sprague Dawley rats; 0 Hr): 0.00 ± 0.00 mL
bioavailability [3]: suboptimal
change in thickness of the left knee as compared to the right knee, percent change (Lewis rats [1]; 0 Hr): 0.00 ± 0.00%
change in thickness of the left knee as compared to the right knee, percent change (Lewis rats [1]; 2 Hr): 1.10 ± 1.13%
change in thickness of the left knee as compared to the right knee, percent change (Lewis rats [1]; 72 Hr): 3.48 ± 0.66%
Paw Edema, volume of water displaced per paw versus baseline (Lewis rats [4]; 0 Hr): 0.00 ± 0.00 mL
Paw Edema, volume of water displaced per paw versus baseline (Lewis rats [4]; 2 Hr): 0.15 ± 0.06 mL

Binding to Cleavage Site Up stream [2]: xxx
B2: 1C7: anti-PAR-2 monoclonal antibody; heavy SEQ ID NO: 17, light SEQ ID NO: 19 (antibody, listed as Homo sapiens, V domains shown)
VH: B1 VH with N28S, I30T, H32Y, M50I, N77R, R84S, F95Y, G100K, F111Y
VL: B1 VL with D25E, L44V, R49K, L57I, G93N, S95A

Binding to Cleavage Site Down stream [2]: xx
IC50 (PAR-2): > 1000 nM
B3: 9B12: anti-PAR-2 monoclonal antibody; heavy SEQ ID NO: 27, light SEQ ID NO: 29 (antibody, listed as Homo sapiens, V domains shown)
VH: QVQLVESGGGVVQPGRSLRLSCAASGFTFSSYGMHWVRQAPGKGLEWVAVIWYDGSNKYYADSVKGRFTISRDNSKNTLYLQMNSLRAEDTAVYYCARDLGAAAGTGFDYWGQGTLVTVSS
VL: QSVLTQPPSVSAAPGQKVTISCSGSSSNIGNNYVSWYQQLPGTAPKLLIYDNNKRPSGIPDRFSGSKSGTSATLGITGLQTGDEADYYCGTWDSSLSAGVVFGGGTKLTVL

Binding to Cleavage Site Down stream [2]: xx
IC50 (PAR-2): > 1000 nM
B4: 2C6: binding non-blocking anti-PAR2 mAb; heavy SEQ ID NO: 23, light SEQ ID NO: 25 (antibody, listed as Homo sapiens, V domains shown)
VH: QVQLVQSGAEVKKPGASVKVSCKASGYTFTGYFFHWVRQAPGQGLEWVGWINPNSGATHFAQKFQGRVTMTRDTSISTAYMELSRLRSDDTAVYYCARDGSNWNRDYGMDVWGQGTTVTVSS
VL: QSVLTQPPSASGTPGQRVTISCSGSSSNIGINHVYWYQQLPGTAPKIFIYRNNQRPSGVPDRFSGSKSGTSASLAISGLRSEDEADYYCAVWDDSLSGVVFGGGTKLTVLG
Paw Edema, volume of water displaced per paw versus baseline (Sprague Dawley rats; 0 Hr): 0.00 ± 0.00 mL
Paw Edema, volume of water displaced per paw versus baseline (Sprague Dawley rats; 2 Hr): 0.57 ± 0.08 mL
Paw Edema, volume of water displaced per paw versus baseline (Sprague Dawley rats; 4 Hr): 1.06 ± 0.16 mL
Paw Edema, volume of water displaced per paw versus baseline (Sprague Dawley rats; 6 Hr): 1.13 ± 0.08 mL
Paw Edema, volume of water displaced per paw versus baseline (Lewis rats [4]; 0 Hr): 0.00 ± 0.00 mL
Paw Edema, volume of water displaced per paw versus baseline (Lewis rats [4]; 2 Hr): 0.22 ± 0.02 mL
Paw Edema, volume of water displaced per paw versus baseline (Lewis rats [4]; 4 Hr): 0.22 ± 0.05 mL
Paw Edema, volume of water displaced per paw versus baseline (Lewis rats [4]; 6 Hr): 0.32 ± 0.06 mL
Paw Edema, volume of water displaced per paw versus baseline (Lewis rats [4]; 8 Hr): 0.51 ± 0.11 mL
